Columns and labels:
[1] = molecular target: T1, MD36NT (MD36 from the N terminus to the proline-rich domain, SEQ ID NO:33) fused to yeast GAL4 transcription … (yeast; human, UniProt Q9Y613 1-640, limits assumed); test: yeast two-hybrid, HIS3 reporter growth
T1 construct: also called pACT-MD36NT
T1 sequence: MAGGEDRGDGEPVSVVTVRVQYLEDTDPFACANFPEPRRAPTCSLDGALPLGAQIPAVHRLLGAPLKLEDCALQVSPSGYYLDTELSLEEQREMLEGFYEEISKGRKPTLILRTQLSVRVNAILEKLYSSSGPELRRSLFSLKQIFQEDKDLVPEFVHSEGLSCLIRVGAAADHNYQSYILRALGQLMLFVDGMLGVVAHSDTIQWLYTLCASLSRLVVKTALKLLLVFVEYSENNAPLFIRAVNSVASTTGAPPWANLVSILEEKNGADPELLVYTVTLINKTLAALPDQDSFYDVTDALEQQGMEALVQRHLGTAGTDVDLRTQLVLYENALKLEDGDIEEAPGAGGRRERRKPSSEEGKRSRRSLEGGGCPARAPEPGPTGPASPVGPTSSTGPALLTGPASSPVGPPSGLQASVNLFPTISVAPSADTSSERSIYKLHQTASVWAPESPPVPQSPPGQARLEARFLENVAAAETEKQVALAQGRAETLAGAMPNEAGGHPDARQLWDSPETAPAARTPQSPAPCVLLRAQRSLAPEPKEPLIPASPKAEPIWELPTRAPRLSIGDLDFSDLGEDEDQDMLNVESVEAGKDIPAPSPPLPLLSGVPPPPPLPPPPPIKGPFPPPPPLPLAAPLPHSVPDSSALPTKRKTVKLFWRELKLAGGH
Excerpt: (§1) The protein-protein interaction between MD36 and the profilin family was detected by the yeast two-hybrid system. Based on pGBT9 (CLONTECH), expression plasmids were constructed to express the coding regions of profiling I (Evangelista et al., Science, 276, 118-122, 1997; Imamura et al., EMBO J., 16, 2745-2755, 1997; Tanaka, Biochem. Biophys. Res. Commun., 267, 479-481, 2000), profilin II (Schluter et al., Biohim. Biophys. Acta, 1359, 97-109, 1997), and profiling IIL in the form fused to yeast GAL4-DNA-binding domain protein under control of yeast ADH1 promoter. These plasmids were named pG-PFNI, pG-PFNII and pG-PFNIII, respectively (yeast selection marker was TRP1). On the other hand, expression plasmids that express the full-length sequence (SEQ ID NO:1) of MD36, which is IRAP-BP protein, or the coding region from this N-terminus to the sequence (SEQ ID NO:33) including the proline-rich domain in the form fused to yeast […] activated domain protein under control of yeast ADH1 promoter was constructed based on pACT2 (CLONTECH), and named pACT-MD36 and pACT-MD36NT, respectively (yeast selection marker was LEU2). pG-PFNI, pG-PFNII, pG-PFNIII or, pGBT9 for control was co-transfected to yeast Saccharomyces cerevisiae Y190 together with pACT-MD36 or pACT-MD36NT, and yeast strains bearing plasmids from the two were selected on SD medium free of tryptophan and leucine. […]

[2] = molecular target: T2, full-length MD36 (SEQ ID NO:1) fused to yeast GAL4 transcription activated domain protein (yeast; human, UniProt Q9Y613 1-1164, limits assumed); test: yeast two-hybrid, HIS3 reporter growth
T2 construct: also called pACT-MD36; IRAP-BP protein
T2 sequence: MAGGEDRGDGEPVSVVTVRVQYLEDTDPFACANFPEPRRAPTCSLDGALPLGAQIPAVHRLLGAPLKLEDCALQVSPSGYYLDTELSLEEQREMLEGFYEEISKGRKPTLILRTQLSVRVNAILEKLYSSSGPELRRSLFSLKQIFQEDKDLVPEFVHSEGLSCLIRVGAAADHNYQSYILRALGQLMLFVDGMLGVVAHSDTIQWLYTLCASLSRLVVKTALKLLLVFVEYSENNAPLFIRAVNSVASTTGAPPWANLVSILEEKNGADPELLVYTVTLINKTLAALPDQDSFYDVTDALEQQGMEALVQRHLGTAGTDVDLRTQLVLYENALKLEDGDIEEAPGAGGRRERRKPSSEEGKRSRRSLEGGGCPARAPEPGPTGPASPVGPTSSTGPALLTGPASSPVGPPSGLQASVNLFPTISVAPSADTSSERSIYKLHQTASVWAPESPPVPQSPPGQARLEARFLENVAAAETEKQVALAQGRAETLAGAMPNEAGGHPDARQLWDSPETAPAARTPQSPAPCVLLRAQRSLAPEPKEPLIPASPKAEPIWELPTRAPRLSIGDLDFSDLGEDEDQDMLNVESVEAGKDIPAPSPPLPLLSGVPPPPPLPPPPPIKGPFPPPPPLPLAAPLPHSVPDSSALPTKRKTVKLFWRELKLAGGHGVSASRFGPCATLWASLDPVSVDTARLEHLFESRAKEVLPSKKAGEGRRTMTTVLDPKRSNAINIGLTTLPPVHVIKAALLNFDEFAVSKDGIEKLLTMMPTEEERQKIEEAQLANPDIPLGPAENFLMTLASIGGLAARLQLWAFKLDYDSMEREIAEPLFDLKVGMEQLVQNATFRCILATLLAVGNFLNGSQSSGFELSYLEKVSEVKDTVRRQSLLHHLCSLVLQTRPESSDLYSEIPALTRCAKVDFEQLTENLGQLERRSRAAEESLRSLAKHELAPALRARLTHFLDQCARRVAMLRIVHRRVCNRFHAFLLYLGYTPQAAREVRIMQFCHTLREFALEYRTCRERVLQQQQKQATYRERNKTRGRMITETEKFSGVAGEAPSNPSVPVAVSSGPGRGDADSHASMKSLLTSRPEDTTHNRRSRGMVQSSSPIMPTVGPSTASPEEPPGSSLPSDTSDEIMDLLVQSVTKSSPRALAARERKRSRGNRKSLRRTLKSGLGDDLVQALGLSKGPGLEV
Excerpt: as §1

[3] = molecular target: T1, MD36NT (MD36 from the N terminus to the …); test: yeast two-hybrid, HIS3 reporter growth on histidine-free medium
Excerpt: as §1

[4] = molecular target: T2, full-length MD36 (SEQ ID NO:1) fused to …; test: as above
Excerpt: as §1

B1: profilin IIL fused to yeast GAL4-DNA-binding domain protein (other)
chain: MKLLSSIEQACDICRLKKLKCSKEKPKCAKCLKNNWECRYSPKTKRSPLTRAHLTEVESRLERLEQLFLLIFPREDLDMILKMDSLQDIKALLTGLFVQDNVNKDAVTDRLASVETDMPLTLRQHRISATSSSEESSNKGQRQLTVSMAGWQSYVDNLMCDGCCQEAAIVGYCDAKYVWAATAGGVFQSITPIEIDMIVGKDREGFFTNGLTLGAKKCSVIRDSLYVDGDCTMDIRTKSQGGEPTYNVAVGRAGRVLVFVMGKEGVHGGGLNKKAYSMAKYLRDSGF
notes: Profilin IIL was cloned from human skeletal muscle-derived cDNA; also called PFN IIL
B1: binds [1]; binds [2].

B2: profilin II fused to yeast GAL4-DNA-binding domain protein (other)
chain: MKLLSSIEQACDICRLKKLKCSKEKPKCAKCLKNNWECRYSPKTKRSPLTRAHLTEVESRLERLEQLFLLIFPREDLDMILKMDSLQDIKALLTGLFVQDNVNKDAVTDRLASVETDMPLTLRQHRISATSSSEESSNKGQRQLTVSAGWQSYVDNLMCDGCCQEAAIVGYCDAKYVWAATAGGVFQSITPIEIDMIVGKDREGFFTNGLTLGAKKCSVIRDSLYVDGDCTMDIRTKSQGGEPTYNVAVGRAGRALVIVMGKEGVHGGTLNKKAYELALYLRRSDV
notes: also called PFN II; pG-PFNII
B2: no binding [3]; no binding [4].

From US20040072742A1 (Takeda / Millennium, published 2004)
